Measured values taken from patent US9670249B2, “Amphiphilic peptides and hydrogel matrices thereof for bone repair” (Ben-Gurion University of the Negev Research and Development …, priority 2006, dated 2017).
Each block holds one substance with its values, some of them ahead of it. No end group written: not given here.

Experiments:
[1] = Hydrogel formation by dissolving peptides in NaOH solution; format: physicochemical; conditions: for Resultant pH / Self supporting gel formation assigned+: 4% weight peptide in 100 μl NaOH solution; for pH at which hydrogel is stabilized / formed: 0.023M peptide in NaOH solutions
Experimental: In general the matrix can be formed in the following way: dissolving the peptides at high pH above about 8) using either buffer (Tris) or NaOH. With the addition of the peptide the pH of the mixture drops and hydrogel may form. The peptide that is dissolved in alkaline solution can be titrated with HCl to a pH ˜7 to form yield a gel. The same can be done with HA or other mineral particles incorporated in the first step […]. Upon gelation the particles get trapped in the gel.
Four peptides were tested for their tendency to form hydrogels as function of pH and Ca^+2 ion concentrations. The peptides are 13 amino acids long having the sequence P-Y-(Z-Y)n-P, wherein n=5 and Y and Z are alternating hydrophilic (Y) and hydrophobic (Z) amino acids:
The experiment goal was to find appropriate conditions for hydrogel formation at physiological pH values (˜7.2) assuming that the type of amino acids in the dyads will determine the propensity of the system to form hydrogles thus the pH and the Ca^+2 ionic concentration of the system.
In an alkaline solution the acidic amino acid side chains tend to be negatively charged. Under these conditions charge-charge repulsive forces keep the peptides dissolved in solution. Upon lowering the pH the peptides which become uncharged undergo self-assembling through inter-strand hydrogen bonding, to form fibrous structure (FIG. 3) that stabilizes highly hydrated-gel, hydrogel. […] All the peptides lowered the pH of the solution to about 6-8 (Table 1).
In the next set of experiments the hypothesis that the more hydrophobic side chains would stabilize the beta-sheet fibril thus hydrogel formation, at higher pH values, was tested. Table 2 summarizes the effect of the hydrophobic side chain on the pH at which hydrogel is obtained. PLE-13 and PFE-13 were dissolved in different NaOH solutions to the same molar concentration (0.023M). […]

[2] = as above; format: physicochemical; conditions: 4% weight peptide in 100 μl NaOH solution, NaOH conc. 0.03

Substance: (Phe-Asp)6 (FDFDFDFDFDFD)
- Resultant pH ([1]; NaOH conc. 0.03): ~6
- Resultant pH ([1]; NaOH conc. 0.05): ~7

Substance: Pro-Asp-Phe-Asp (PDFD; printed: Pro-Asp-Phe-Asp)
- Resultant pH ([1]; NaOH conc. 0.03): ~3
- Resultant pH ([1]; NaOH conc. 0.05): ~4
- Self supporting gel formation assigned+ ([1]; NaOH conc. 0.05): liquid
- Self supporting gel formation assigned+ [2]: liquid

- pH at which hydrogel is stabilized / formed [1]: > 7
Substance: PEFEFEFEFEFEP [PFE-13, PE(FE)5P]

- pH at which hydrogel is stabilized / formed [1]: ~7
Substance: PDFDFDFDFDFDP [PFD-13, PD(FD)5P]

Substance: Ac-Pro-Asp-(Phe-Asp)5-Pro-NH2 (Ac-PDFDFDFDFDFDP-NH2)
- Resultant pH ([1]; NaOH conc. 0.03): ~6
- Resultant pH ([1]; NaOH conc. 0.05): >7.5
- Self supporting gel formation assigned+ ([1]; NaOH conc. 0.05): Viscous liquid

- pH at which hydrogel is stabilized / formed [1]: ~6.5
Substance: PELELELELELEP [PLE-13, PE(LE)5P]

Substance: Pro-Asp-(Phe-Asp)6 (PDFDFDFDFDFDFD)
- Resultant pH ([1]; NaOH conc. 0.03): ~6
- Resultant pH ([1]; NaOH conc. 0.05): ~7
- Self supporting gel formation assigned+ ([1]; NaOH conc. 0.05): +after several hrs.

Substance: PDLDLDLDLDLDP [PLD-13, PD(LD)5P]
- pH at which hydrogel is stabilized / formed [1]: forms hydrogel at lower pH compared to that of PFD-13
